Experimental data from US20200408687, “Polarization-Based Fluorescent Nucleic Acid Detection” (The General Hospital Corporation, published 2020).

Biological target: Taq DNA polymerase (UniProt P19821 P19821:1-832)
Assay: EMSA; band of key/amplicon hybrid shifted on adding Taq; 4 mM MgCl2, 20 mM Tris-HCl pH 8.3, 20 mM KCl, room temp; text does not name the individual keys run
Details: tags: New England Biolabs (band shift); Maxima Hot Start Taq, Thermo Scientific, in PAD assay
Method: Electrophoretic Band Shift Experiment Solution containing 100 or 200 nM detection key, PCR products and 12.5 U Taq DNA polymerase (New England Biolabs) in 20 mM Tris-HCl (pH 8.3), 20 mM KCl, 5 mM (NH4)2SO4, and 4 mM MgCl2 was incubated at room temperature for 20 min. The solution was mixed with 6× loading buffer and subjected to electrophoresis on a 20% polyacrylamide gel (Life technologies). The analysis was carried out in 1× TBE (100 mM Tris, 90 mM Borate, 1 mM EDTA) at 150 V for 160 min at 4° C. After GelRed (Biotium) staining, gels were scanned using a UV transilluminator. DNA polymerase was neither fluorescent nor stained by the dye.
The sequence homology among genus types was kept <50% to minimize non-specific binding. When tested, the HAI keys assumed high specificity. […] Electrophoretic band-shift analysis confirmed that the detection keys, in the presence of complementary target amplicon, bound to DNA polymerase and inhibited its catalytic activity (see FIG. 24). […] This confirmed the binding between detection keys and DNA polymerase.

Taq DNA polymerase, sequence (P19821 whole entry, one chain of several): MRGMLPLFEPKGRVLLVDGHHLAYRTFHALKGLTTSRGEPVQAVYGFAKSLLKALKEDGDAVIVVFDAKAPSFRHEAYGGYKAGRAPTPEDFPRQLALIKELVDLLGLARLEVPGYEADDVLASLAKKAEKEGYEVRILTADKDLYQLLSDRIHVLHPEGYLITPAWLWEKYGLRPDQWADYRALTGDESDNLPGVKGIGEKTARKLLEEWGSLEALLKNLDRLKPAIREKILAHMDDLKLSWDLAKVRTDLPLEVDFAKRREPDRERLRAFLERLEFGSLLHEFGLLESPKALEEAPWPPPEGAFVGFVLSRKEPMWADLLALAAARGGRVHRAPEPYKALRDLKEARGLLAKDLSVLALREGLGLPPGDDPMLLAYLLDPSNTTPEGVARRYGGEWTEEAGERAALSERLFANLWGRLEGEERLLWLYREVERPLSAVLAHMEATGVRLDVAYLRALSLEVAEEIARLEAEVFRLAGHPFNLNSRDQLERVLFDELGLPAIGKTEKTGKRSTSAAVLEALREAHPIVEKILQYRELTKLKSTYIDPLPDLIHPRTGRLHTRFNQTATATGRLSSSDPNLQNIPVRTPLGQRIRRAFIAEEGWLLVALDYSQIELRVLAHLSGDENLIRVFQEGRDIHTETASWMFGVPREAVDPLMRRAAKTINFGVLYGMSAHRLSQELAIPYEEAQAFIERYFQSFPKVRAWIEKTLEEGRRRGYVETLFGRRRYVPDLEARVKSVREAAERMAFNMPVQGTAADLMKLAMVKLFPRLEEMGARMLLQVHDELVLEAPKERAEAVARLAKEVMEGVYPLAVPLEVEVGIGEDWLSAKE

B1: Escherichia detection key / Escherichia amplicon (mixed)
DNA 1: CAATGTACAGTATTGTGGAGGAAGGGAGTAAAGTTAAT
DNA 2: TGCGGGTAACGTCAATGAGCAAAGGTATTAACTTTACTCCCTTCCTCCA
modifications: amplicon strand dU in place of dT in dUTP assay
  binding result: binds
